Source: doi:10.1101/2025.07.21.665964
pKd: −log10 of the molar value.

Target: Avi-GST-CMG2^ABD
Experiment: BLI

“purified actin (polymerized F-actin) (from UniProt P60709 1-375) (natural protein)” showed a pKd of 8.00.
